Test results taken from the supplement of paper PMC10126150.
± gives the standard deviation of the averaged measurements.

test system: ATP; assay: switch fluorescence ratio, 500 uM ATP over buffer (Cy3 cluster intensity, sum of 5 cycles each) (fold (ratio)); higher = stronger signal-on switching upon ATP binding; sequences stand for … in TCGTCGGCAGCGTCAGATGTGTATAAGAGACAGTTTTTTTTTTTTTTTTTTTTTTTTT…TC; conditions: aptamer strand: ATP DNA aptamer (quencher-CACCTGGGGGAGTATTGCGGAGGAAGG + anchor), 100 nM annealed; ATP concentration: 500 uM
In short: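 Clusters with intensities outside 100-1000 RFU were excluded. The remaining Cy3-labelled switching-strand clusters on a modified Illumina MiSeq flow-cell had been annealed to 100 nM quencher-labelled ATP aptamer and imaged in selection buffer, then after 15 min with 500 uM ATP at 22 °C, for five cycles separated by NaOH stripping and re-annealing. The fluorescence ratio, averaged per switch-domain sequence, is each cluster's summed target-cycle Cy3 intensity over its summed buffer-cycle Cy3 intensity.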
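Note: ATP exposure 15 min at 22 °C before imaging.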

Sequence	switch fluorescence ratio
TTAAGGGCGC	1 ± 0.084
TTAAGGGGTA	1 ± 0.019
TTAAGGTAAA	1.01 ± 0.049
TTAAGGTCGT	0.995 ± 0.034
TTAAGTACGC	1.29 ± 0.014
TTAAGTCTTC	0.964 ± 0.039
TTAAGTGGCT	1.016 ± 0.0095
TTAAGTGGGT	0.979 ± 0.061
TTAAGTGGTT	0.998 ± 0.011
TTAAGTTCAT	0.9806 ± 0.0067
TTAAGTTGCA	1.05 ± 0.028
TTAATAAAAT	0.966 ± 0.018
TTAATATGTA	0.9897 ± 0.0074
TTAATATTAT	0.978 ± 0.013
TTAATCAATG	0.998 ± 0.029
TTAATCATAG	1 ± 0.066
TTAATCGTTA	1.01 ± 0.011
TTAATGACTT	1.02 ± 0.058
TTAATGATGG	1.012 ± 0.0075
TTAATGCAAC	1.01 ± 0.021
TTAATGGCTA	0.976 ± 0.021
TTAATGGGA	0.995 ± 0.011
TTAATGGGAT	0.987 ± 0.021
TTAATGTGAT	1 ± 0.012
TTAATTAAAC	1.013 ± 0.0035
TTAATTAACG	0.995 ± 0.023

Sequence	switch fluorescence ratio
TTAATTCGTC	0.949 ± 0.021
TTAATTGGCC	0.992 ± 0.055
TTAATTGGGA	0.9897 ± 0.0028
TTAATTGGGC	1.03 ± 0.069
TTAATTTCGG	0.991 ± 0.065
TTAATTTGAG	0.986 ± 0.03
TTAATTTTTG	0.996 ± 0.029
TTACAAGACG	1.032 ± 0.0049
TTACAAGGGA	1.09 ± 0.18
TTACAATATT	1.07 ± 0.03
TTACAATTTG	1.01 ± 0.039
TTACACGATA	1.32 ± 0.15
TTACAGCTGA	1.01 ± 0.016
TTACAGGCCT	1.05 ± 0.056
TTACAGGGGC	1.11 ± 0.061
TTACATAGGG	1.019 ± 0.0079
TTACATAGTA	1.06 ± 0.071
TTACATATGG	1.024 ± 0.0032
TTACATTTTG	1.01 ± 0.026
TTACCAGCTT	1.02 ± 0.063
TTACCAGTTG	1.04 ± 0.031
TTACCCATGG	0.937 ± 0.064
TTACCCCGAA	1.026 ± 0.0067
TTACCGGATA	1.035 ± 0.0092
TTACCGGGAG	1.05 ± 0.013
TTACCGGTAG	0.993 ± 0.059

Sequence	switch fluorescence ratio
TTACCGTACG	1.45 ± 0.11
TTACCGTGCC	1.27 ± 0.059
TTACCTCATT	1.02 ± 0.015
TTACCTGGGG	1.03 ± 0.038
TTACCTTTTT	1.02 ± 0.013
TTACGAAGGG	1.012 ± 0.0045
TTACGACCGG	1.01 ± 0.032
TTACGGAGGC	1.0641 ± 5.8e-05
TTACGGAT	1.06 ± 0.019
TTACGGATGT	1.02 ± 0.012
TTACGGCAGG	1.13 ± 0.092
TTACGGCCAA	1.26 ± 0.31
TTACGGCCGA	1.02 ± 0.026
TTACGGGGAG	1 ± 0.034
TTACGGGTAG	1.02 ± 0.0088
TTACGGTGCC	0.987 ± 0.03
TTACGGTTGC	0.9665 ± 0.0024
TTACGTTTC	1 ± 0.034
TTACGTTTTG	1.13 ± 0.29
TTACTATTCT	1.001 ± 0.0063
TTACTATTTT	1.03 ± 0.023
TTACTCCTTT	1 ± 0.017
TTACTCGACG	1.06 ± 0.022
TTACTCGTCA	0.989 ± 0.011
TTACTCGTCT	1.08 ± 0.056
TTACTCTATA	1.06 ± 0.016

Sequence	switch fluorescence ratio
TTACTGGCT	1 ± 0.059
TTACTGGGGT	1.02 ± 0.021
TTACTTCTTT	0.976 ± 0.027
TTACTTGAGG	1.11 ± 0.13
TTACTTGGCC	0.9818 ± 0.0021
TTAGAAACGC	1.02 ± 0.04
TTAGAAAGGG	0.977 ± 0.029
TTAGAATACG	1 ± 0.045
TTAGACATTA	1.02 ± 0.018
TTAGACGCGG	0.98 ± 0.036
TTAGACGGGG	1 ± 0.034
TTAGAGACGT	1.03 ± 0.027
TTAGAGACTG	1.08 ± 0.11
TTAGAGAGGC	0.961 ± 0.054
TTAGAGAGGT	0.988 ± 0.03
TTAGAGCTTT	0.975 ± 0.021
TTAGAGGAAC	0.965 ± 0.028
TTAGAGGCAT	1.05 ± 0.066
TTAGAGGCGT	1.006 ± 0.0053
TTAGATACCA	1.03 ± 0.039
TTAGATGCGG	1.013 ± 0.01
TTAGCAACGA	1.09 ± 0.039
TTAGCATGTT	1 ± 0.022
TTAGCATTAG	1.23 ± 0.04
TTAGCCGGGT	0.9802 ± 0.0028
TTAGCCGTTG	1.03 ± 0.015

Sequence	switch fluorescence ratio
TTAGCGAGGT	1.02 ± 0.032
TTAGCGGGGG	1.03 ± 0.06
TTAGCTCTA	1.012 ± 0.0054
TTAGGAAATT	1.04 ± 0.032
TTAGGAAGGT	1 ± 0.021
TTAGGACGGC	0.876 ± 0.02
TTAGGACTTG	0.985 ± 0.015
TTAGGAGAAT	0.999 ± 0.015
TTAGGCCCTG	0.992 ± 0.041
TTAGGCGCAT	1.03 ± 0.025
TTAGGCTTT	0.9374 ± 0.0049
TTAGGGAA	1.01 ± 0.023
TTAGGGAAGT	0.991 ± 0.031
TTAGGGAGTT	0.9784 ± 0.0062
TTAGGGATAT	1.22 ± 0.42
TTAGGGCCAA	1 ± 0.0078
TTAGGGCCGC	0.966 ± 0.014
TTAGGGCTAG	0.9932 ± 0.0081
TTAGGGCTGC	0.98664 ± 0.00045
TTAGGGGAAG	1.01 ± 0.022
TTAGGGGTGG	0.996 ± 0.032
TTAGGGTCAG	0.997 ± 0.035
TTAGGGTCGC	0.993 ± 0.035
TTAGGGTG	0.992 ± 0.03
TTAGGGTTTC	0.978 ± 0.013
TTAGGTAGCA	1.007 ± 0.0024

Sequence	switch fluorescence ratio
TTAGGTATCT	1.01 ± 0.0095
TTAGGTTTGT	1 ± 0.031
TTAGGTTTTG	1.02 ± 0.061
TTAGTAAGTT	1.11 ± 0.12
TTAGTACCCA	1.03 ± 0.0032
TTAGTACCCT	1.06 ± 0.043
TTAGTAGGAG	0.992 ± 0.034
TTAGTAGGTG	0.98 ± 0.024
TTAGTAGTGG	0.974 ± 0.01
TTAGTATGTT	1 ± 0.035
TTAGTCGACC	0.9919 ± 0.0016
TTAGTGATTA	0.996 ± 0.014
TTAGTGCTCC	1.039 ± 0.0018
TTAGTGGCGA	1.19 ± 0.31
TTAGTGTTTT	0.98 ± 0.05
TTAGTTACGG	0.999 ± 0.019
TTAGTTATAG	1 ± 0.025
TTAGTTATGT	0.992 ± 0.0093
TTAGTTGAGT	1.02 ± 0.028
TTAGTTGTAA	1.012 ± 0.0049
TTAGTTGTTT	0.964 ± 0.023
TTAGTTTGTT	0.981 ± 0.014
TTAGTTTTGT	0.999 ± 0.027
TTATAAAAAA	1.07 ± 0.079
TTATAAAAGG	1.031 ± 0.0021
TTATAAAGCG	1.054 ± 0.0028

Sequence	switch fluorescence ratio
TTATAAAGGA	1.05 ± 0.046
TTATAAATTG	0.991 ± 0.03
TTATAAG	1.003 ± 0.0067
TTATAATCGT	0.988 ± 0.014
TTATAATCTG	0.986 ± 0.064
TTATAATGGT	1.02 ± 0.062
TTATACAAGT	0.9574 ± 0.0065
TTATACATCT	1.038 ± 0.0068
TTATACATTG	1.02 ± 0.041
TTATACGATG	1.01 ± 0.025
TTATACGCGG	0.991 ± 0.026
TTATACGTAG	1.03 ± 0.019
TTATACGTCG	1.01 ± 0.023
TTATAGAGG	1.02 ± 0.0041
TTATAGGGG	1 ± 0.039
TTATAGGTCT	1 ± 0.072
TTATATCGGG	0.995 ± 0.016
TTATATTGGG	1 ± 0.033
TTATATTGGT	0.974 ± 0.028
TTATATTTCT	1.01 ± 0.036
TTATCAATGG	1.01 ± 0.078
TTATCAGTGG	0.9707 ± 0.002
TTATCATCTA	1.02 ± 0.013
TTATCATGGG	0.993 ± 0.047
TTATCCGGGT	0.9661 ± 0.0088
TTATCGGATT	0.983 ± 0.029

Sequence	switch fluorescence ratio
TTATCGGGAG	0.9964 ± 0.0019
TTATCTAATC	0.972 ± 0.008
TTATCTCGTA	0.99 ± 0.013
TTATCTCTGG	0.9776 ± 0.0076
TTATGAAAGG	0.968 ± 0.03
TTATGAATAG	0.99 ± 0.011
TTATGACATT	1.01 ± 0.044
TTATGACGGG	1 ± 0.036
TTATGAGAGC	0.964 ± 0.022
TTATGAGGGG	1.009 ± 0.0077
TTATGAGTTG	0.963 ± 0.029
TTATGAGTTT	0.988 ± 0.036
TTATGATCAG	0.9912 ± 0.0038
TTATGATTCA	0.973 ± 0.022
TTATGCAAAA	1.14 ± 0.21
TTATGCCGGG	0.971 ± 0.032
TTATGCTTTC	1.25 ± 0.34
TTATGGACTG	1.01 ± 0.079
TTATGGGAAG	0.998 ± 0.013
